According to the supplement of paper PMC7877785:
± gives the uncertainty stated by the source.

Assay: self-splicing fitness, log relative to wild type (ln ratio); higher = more splicing; Tetrahymena group I intron in knt gene, E. coli kanamycin selection, DiMSum; sequences stand for … in CUCUCU…GGAGGGAAAAGUUAUCAGGCAUGCACCUGGUAGCUAGUCUUUAAACCAAUAGAUUGCAUCGGUUUAAAAGGCAAGACCGUCAAAUUGCGGGAAAGGGGUCAACAGCCGUUCAGUACCAAGUCUCAGGGGAAACUUUGAGAUGGCCUUGCAAAGGGUAUGGUAAUAAGCUGACGGACAUGGUCCUAACCACGCAGCCAAGUCCUAAGUCAACAGAUCUUCUGUUGAUAUGGAUGCAGUUCACAGACUAAAUGUCGGUCGGGGAAGAUGUAUUCUUCUCAUAAGAUAUAGUCGGACCUCUCCUUAAUGGGAGCUAGCGGAUGAAGUGAUGCAACACUGGAGCCGCUGGGAACUAAUUUGUAUGCGAAAGUAUAUUGAUUAGUUUUGGAGUACUCGUGGUCG
How it was run: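 The eight P1ex-region nucleotides of an intron in the knt kanamycin-resistance gene on pET-22b(+) were all randomised and the library put into E. coli BL21(DE3). Six replicate transformations were grown overnight at 37°C or 30°C on LB agar with or without 25 μg/mL kanamycin, together with 100 μg/mL carbenicillin, 50 μM IPTG and 0.2% rhamnose. Colonies were pooled and amplicon-sequenced on an Illumina HiSeq 2500. Fitness from DiMSum is the error-weighted combination of wild-type-normalised replicate fold changes, kanamycin over none.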

| Sequence | self-splicing fitness (ln) (30 °C) | self-splicing fitness (ln) (37 °C) |
| --- | --- | --- |
| UGCAAGCAAUAUUACGGCCG | -0.266 ± 0.075 | 0.134 ± 0.099 |
| UGGUAGCAAUAUUACGUAGU | -3.23 ± 0.22 | -1.04 ± 0.18 |
| ACUUAGCAAUAUUACGACGU | -0.13 ± 0.076 | 0.549 ± 0.079 |
| GUCGAGCAAUAUUACGCUAU | -2.01 ± 0.12 | -1.36 ± 0.12 |
| AUUAAGCAAUAUUACGAUGG | -3.96 ± 0.37 | -1.94 ± 0.26 |
| CAUUAGCAAUAUUACGAAUU | -2.07 ± 0.22 | -1.2 ± 0.17 |
| AGGGAGCAAUAUUACGUGUA | -3.24 ± 0.35 | -3.06 ± 0.31 |
| CAACAGCAAUAUUACGUGUU | -3.54 ± 0.11 | -3.03 ± 0.15 |
| UGAUAGCAAUAUUACGCGGG | -3.28 ± 0.31 | -1.7 ± 0.25 |
| AAUCAGCAAUAUUACGAGCC | -2.39 ± 0.16 | -0.744 ± 0.19 |
| ACCGAGCAAUAUUACGAUCA | -2.6 ± 0.24 | -0.928 ± 0.19 |
| UUCUAGCAAUAUUACGAAGU |  | -0.603 ± 0.25 |
| GUGGAGCAAUAUUACGUUUA | -3.33 ± 0.2 | -2.26 ± 0.33 |
| ACAAAGCAAUAUUACGCAUG | -1.82 ± 0.075 | -0.868 ± 0.084 |
| UUUAAGCAAUAUUACGCAGC | -2.88 ± 0.22 | -0.593 ± 0.2 |
| CCUAAGCAAUAUUACGACGA | -2.67 ± 0.24 | -2.1 ± 0.38 |
| ACUGAGCAAUAUUACGGCUA | -1.61 ± 0.15 | -1.63 ± 0.16 |
| GAAUAGCAAUAUUACGAUAA | -1.51 ± 0.1 | -0.77 ± 0.13 |
| GAGGAGCAAUAUUACGCCGA | -1.95 ± 0.33 | -1.77 ± 0.28 |
| GGGGAGCAAUAUUACGACUG | -0.399 ± 0.45 |  |
| AAUAAGCAAUAUUACGAUCA | -0.507 ± 0.12 | 0.576 ± 0.13 |
| AAUAAGCAAUAUUACGCCUU | -0.502 ± 0.12 | -0.0645 ± 0.18 |
| CACAAGCAAUAUUACGAUGU | -3.96 ± 0.16 | -1.99 ± 0.1 |
| GGGAAGCAAUAUUACGGUGU | -2.2 ± 0.1 | -0.483 ± 0.13 |
| CGGCAGCAAUAUUACGUCCU | 0.101 ± 0.067 | 0.44 ± 0.092 |

| Sequence | self-splicing fitness (ln) (30 °C) | self-splicing fitness (ln) (37 °C) |
| --- | --- | --- |
| GAGAAGCAAUAUUACGAAAU | -3.17 ± 0.23 | -1.63 ± 0.19 |
| AGGUAGCAAUAUUACGCGAU | -3.466 ± 0.03 | -2.24 ± 0.039 |
| ACUGAGCAAUAUUACGAGCC | -3.59 ± 0.4 |  |
| CCCUAGCAAUAUUACGCAUU | -3.74 ± 0.28 | -2.82 ± 0.43 |
| UUCGAGCAAUAUUACGAGUU | -1.62 ± 0.18 | -0.549 ± 0.17 |
| UCAUAGCAAUAUUACGUCGU | -3.88 ± 0.39 | -1.79 ± 0.38 |
| UGAAAGCAAUAUUACGGCCA | -0.0769 ± 0.21 | 0.0533 ± 0.28 |
| GCGAAGCAAUAUUACGCGCA | -1.75 ± 0.36 | -1.11 ± 0.22 |
| AACUAGCAAUAUUACGUACA | -1.19 ± 0.099 | -0.373 ± 0.13 |
| UAAAAGCAAUAUUACGGAAC | -3.24 ± 0.27 | -2.68 ± 0.4 |
| GACGAGCAAUAUUACGUGGC | -0.192 ± 0.41 | -1.57 ± 0.22 |
| UUAUAGCAAUAUUACGAGAG |  | -0.556 ± 0.26 |
| CGUCAGCAAUAUUACGAAGA | -2.26 ± 0.19 | -2.09 ± 0.23 |
| UUCCAGCAAUAUUACGUCAA | -1.3 ± 0.1 | -0.233 ± 0.12 |
| AGUCAGCAAUAUUACGUGUG | -2.26 ± 0.099 | -1.57 ± 0.11 |
| CGUUAGCAAUAUUACGUCUA | -3 ± 0.28 | -2.33 ± 0.24 |
| CGACAGCAAUAUUACGGUAG | -1.47 ± 0.069 | -0.946 ± 0.069 |
| UGCGAGCAAUAUUACGCGGU | -2.46 ± 0.17 | -2.43 ± 0.19 |
| GGGAAGCAAUAUUACGGCCU | -3.14 ± 0.26 | -1.35 ± 0.25 |
| AUUAAGCAAUAUUACGACAG | -1.91 ± 0.16 | -1.47 ± 0.19 |
| UGUAAGCAAUAUUACGCCAA | -2.77 ± 0.26 | -1.34 ± 0.2 |
| UGAGAGCAAUAUUACGGAAA |  | -1.92 ± 0.39 |
| ACGAAGCAAUAUUACGAAAA | -3.5 ± 0.43 | -2.78 ± 0.43 |
| CGCGAGCAAUAUUACGGAGC |  | -1.99 ± 0.26 |
| AAGAAGCAAUAUUACGAAUC | -2.91 ± 0.15 | -2.64 ± 0.26 |

| Sequence | self-splicing fitness (ln) (30 °C) | self-splicing fitness (ln) (37 °C) |
| --- | --- | --- |
| CGAAAGCAAUAUUACGAUAA | -2.44 ± 0.17 | -0.695 ± 0.12 |
| AAUCAGCAAUAUUACGAGGG | -1.68 ± 0.088 | -0.681 ± 0.096 |
| CAAGAGCAAUAUUACGGAGG | -1.85 ± 0.083 | -1.3 ± 0.13 |
| CUGAAGCAAUAUUACGUUAU | -4.59 ± 0.23 | -3.63 ± 0.37 |
| GUGCAGCAAUAUUACGCACC |  | -1.79 ± 0.35 |
| CGGCAGCAAUAUUACGAGUU | -5.14 ± 0.41 | -2.69 ± 0.29 |
| AGCAAGCAAUAUUACGUGGC | -2.83 ± 0.15 | -3.3 ± 0.21 |
| UUGUAGCAAUAUUACGGAAU | -1.94 ± 0.15 | -3.26 ± 0.32 |
| CUUCAGCAAUAUUACGGGCU | -3.81 ± 0.27 | -2.83 ± 0.31 |
| AUGCAGCAAUAUUACGUUGA | -2.97 ± 0.14 | -2.41 ± 0.12 |
| UGAAAGCAAUAUUACGCUCU | -2.48 ± 0.17 | -1.37 ± 0.18 |
| UACCAGCAAUAUUACGGACC | -0.962 ± 0.071 | -0.872 ± 0.086 |
| CCUAAGCAAUAUUACGACGU | -3.61 ± 0.29 | -2.17 ± 0.22 |
| CACAAGCAAUAUUACGAGCC | -4.37 ± 0.42 | -2.17 ± 0.4 |
| CCACAGCAAUAUUACGGUAA | -3 ± 0.14 | -2.2 ± 0.18 |
| AUGGAGCAAUAUUACGAAGU |  | -1.77 ± 0.36 |
| GGACAGCAAUAUUACGAUGU | -2.12 ± 0.055 | -0.961 ± 0.057 |
| UUGGAGCAAUAUUACGGAAG | -3.3 ± 0.44 |  |
| GCUGAGCAAUAUUACGUUGA | -2.57 ± 0.22 | -2.61 ± 0.22 |
| UGGCAGCAAUAUUACGGAAC | -2.89 ± 0.36 | -1.72 ± 0.21 |
| GAUGAGCAAUAUUACGAGCC | -0.987 ± 0.31 | -1.53 ± 0.41 |
| UAAUAGCAAUAUUACGCCCG |  | 0.42 ± 0.42 |
| UCACAGCAAUAUUACGAAUA | -2.68 ± 0.14 | -1.44 ± 0.11 |
| CUGUAGCAAUAUUACGAUUA | -2.74 ± 0.33 | -1.24 ± 0.4 |
| UCCUAGCAAUAUUACGUAUA | -3.53 ± 0.28 | -2.03 ± 0.16 |

| Sequence | self-splicing fitness (ln) (30 °C) | self-splicing fitness (ln) (37 °C) |
| --- | --- | --- |
| UAGAAGCAAUAUUACGCUGG | -1.38 ± 0.16 | -0.436 ± 0.18 |
| GACGAGCAAUAUUACGUUUG | -3.1 ± 0.22 | -1.94 ± 0.26 |
| ACCCAGCAAUAUUACGCUAA | -1.67 ± 0.069 | -1.33 ± 0.068 |
| AGGAAGCAAUAUUACGCGGU | -4.18 ± 0.39 | -1.31 ± 0.2 |
| AAAAAGCAAUAUUACGUUUG | -2.65 ± 0.097 | -2.01 ± 0.12 |
| CAAAAGCAAUAUUACGAGGC | -4.77 ± 0.39 | -2.34 ± 0.18 |
| CGAUAGCAAUAUUACGCAGG | -1.6 ± 0.092 | -1.25 ± 0.1 |
| GCAGAGCAAUAUUACGGCGC | -2.3 ± 0.23 | -1.28 ± 0.41 |
| AUCUAGCAAUAUUACGCGUA | -0.86 ± 0.11 | -0.721 ± 0.13 |
| CGAGAGCAAUAUUACGGCAU | -3.2 ± 0.42 | -2.15 ± 0.46 |
| CGCGAGCAAUAUUACGCCGG | -2.19 ± 0.25 | -1.58 ± 0.44 |
| CGACAGCAAUAUUACGAGUA | -3.58 ± 0.18 | -1.52 ± 0.12 |
| CCCAAGCAAUAUUACGGGCC | -3.98 ± 0.22 | -2.08 ± 0.19 |
| CACGAGCAAUAUUACGGAAA | -2.33 ± 0.22 | -1.8 ± 0.19 |
| GGAAAGCAAUAUUACGAAGC | -1.07 ± 0.34 | -1.43 ± 0.34 |
| UGACAGCAAUAUUACGGCGU | -2.71 ± 0.15 | -1.67 ± 0.16 |
| CGGUAGCAAUAUUACGCAAA |  | -1.6 ± 0.42 |
| GCAGAGCAAUAUUACGUGUC | -4.24 ± 0.26 | -2.16 ± 0.21 |
| AAAGAGCAAUAUUACGCUGG | -4.07 ± 0.32 | -1.89 ± 0.31 |
| AUCCAGCAAUAUUACGACUC | -0.847 ± 0.071 | 0.244 ± 0.1 |
| CCAGAGCAAUAUUACGUACC |  | -2 ± 0.35 |
| GAUAAGCAAUAUUACGGAUA | -1.73 ± 0.12 | -1.31 ± 0.15 |
| GGACAGCAAUAUUACGGAUU | -1.33 ± 0.066 | 0.0211 ± 0.089 |
| ACGUAGCAAUAUUACGCUGG | -2.32 ± 0.18 | -2.64 ± 0.41 |
